Data on 47 substances can be found in patent publication US20260008815A1, “CYCLIC PEPTIDE OR SALT THEREOF, AND USES THEREOF” (FUJIFILM Corporation, priority 2023, published 2026).

Bridge positions count the residues as written; N and C are the ends. Ends that are not written are not given here. COCH2 = acetyl group that carries the bridge

In the experiment the target is T1, Recombinant Human FGFR2 alpha (IIIc) Fc Chimera Protein (Homo sapiens, UniProt P21802).
T1 construct: Fc (chimera); purchased R&D systems 712-FR-050
T1 sequence (P21802 with tags, fused parts or gaps limits assumed): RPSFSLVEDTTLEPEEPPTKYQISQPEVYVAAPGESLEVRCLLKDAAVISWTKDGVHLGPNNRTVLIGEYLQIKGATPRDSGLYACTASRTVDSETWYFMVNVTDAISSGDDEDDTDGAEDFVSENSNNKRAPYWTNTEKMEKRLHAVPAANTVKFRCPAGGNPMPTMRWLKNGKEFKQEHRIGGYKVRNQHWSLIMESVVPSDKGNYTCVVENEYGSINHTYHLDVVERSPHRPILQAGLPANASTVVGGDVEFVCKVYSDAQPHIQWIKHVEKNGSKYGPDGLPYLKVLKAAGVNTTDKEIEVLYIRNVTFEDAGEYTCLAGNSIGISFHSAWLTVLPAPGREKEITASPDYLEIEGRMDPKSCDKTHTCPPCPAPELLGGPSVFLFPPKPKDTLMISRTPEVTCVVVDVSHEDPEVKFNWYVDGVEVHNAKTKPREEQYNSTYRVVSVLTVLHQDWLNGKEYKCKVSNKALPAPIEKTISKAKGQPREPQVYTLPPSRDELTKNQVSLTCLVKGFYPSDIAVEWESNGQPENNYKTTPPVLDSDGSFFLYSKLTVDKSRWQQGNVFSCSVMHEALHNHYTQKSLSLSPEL
As to the kind of experiment: ELISA binding affinity of enzymatically synthesized peptide to FGFR. The settings on record: ELISA luminescence signal at 10 nmol/L peptide, SEQ ID NO: 47 at 10 nmol/L standardized to 1; enzyme synthesis product. How it is done: The binding affinity of the peptide to FGFR was evaluated using an ELISA method.
The binding affinity of the enzymatically synthesized peptide to FGFR was measured by evaluating the amount of the peptide bound to FGFR by ELISA.
First, 5 ng of Recombinant Human FGFR2 alpha (IIIc) Fc Chimera Protein (R&D systems, 712-FR-050) was immobilized in each well of a 96-well plate, and blocked with Pierce Protein-Free (PBS) Blocking Buffer (Thermo, 37572), and a peptide diluted with Can Get Signal Immunoreaction Enhancer Solution I (TOYOBO, NKB-101) was then added and reacted at room temperature for 3 hours. After washing with 0.05% Tween 20-containing phosphate buffered saline (PBS), an anti-Myc antibody (Cell Signaling, 14038S) diluted with Can Get Signal Immunoreaction Enhancer Solution II (TOYOBO, NKB-101) was added and reacted at room temperature for 2 hours. After washing with 0.05% Tween 20-containing PBS, SuperSignal ELISA Femto Substrate (Thermo, 37075) was added, and the luminescence amount was measured. The dose-response relationship was calculated from using the difference between the luminescence amount in the well in which FGFR was immobilized and the luminescence amount in the well in which FGFR was not immobilized, and the concentration of the peptide at the time of reaction, and the binding affinity to FGFR was evaluated according to the following evaluation criteria. The evaluation result preferably satisfies the evaluation criteria A, B, or C.
In a case where a value of a luminescence signal emitted by the cyclic peptide set forth in SEQ ID NO: 47 at a reaction concentration of 10 nmol/L is standardized to 1, evaluation criteria of the luminescence signal value emitted by the cyclic peptide at a reaction concentration of 10 nmol/L is as follows. • A: 0.7 or more • B: 0.5 or more and less than 0.7 • C: 0.1 or more and less than 0.5 • D: less than 0.1.
For “67 (KCPQNFINPVQWRYFQHYKA; not fully specified; also: cyclic peptide, ring places not shown) [compound 67]”, the “Evaluation result of binding affinity to FGFR” value (shortened to “Evaluation result”) was “A (0.7 or more)”.

On to “68 (KCQNFINPVQWRYFQHYK(COCH2)N; thioether 2-18 (inferred)) [compound 68]”, for which the “Evaluation result” value is “A (0.7 or more)”.

For the substance “69 (KCPQNFINPVQWRYFQHYAKN; not fully specified; also: cyclic peptide, ring places not shown) [compound 69]”, the “Evaluation result” value was “C (0.1 or more and less than 0.5)”.

Consider “70 (KCAPQNFINPVQWRYFQHYK(COCH2)N; thioether 2-20 (inferred)) [compound 70]”, for which the “Evaluation result” value is “B (0.5 or more and less than 0.7)”.

As for “71 (GCPQNFINPVQWRYFQHYK(COCH2)N; thioether 2-19 (inferred)) [compound 71]”, the “Evaluation result” value is given as “A (0.7 or more)”.

For “72 (PCPQNFINPVQWRYFQHYK(COCH2)N; thioether 2-19 (inferred)) [compound 72]”, the “Evaluation result” value was “A (0.7 or more)”.

In the case of “73 (LCPQNFINPVQWRYFQHYK(COCH2)N; thioether 2-19 (inferred)) [compound 73]”, the “Evaluation result” value is reported as “A (0.7 or more)”.

In the case of “74 (ICPQNFINPVQWRYFQHYK(COCH2)N; thioether 2-19 (inferred)) [compound 74]”, the “Evaluation result” value is on record as “A (0.7 or more)”.

Turning to “75 (VCPQNFINPVQWRYFQHYK(COCH2)N; thioether 2-19 (inferred)) [compound 75]”, the “Evaluation result” value was “A (0.7 or more)”.

For the substance “76 (FCPQNFINPVQWRYFQHYK(COCH2)N; thioether 2-19 (inferred)) [compound 76]”, the “Evaluation result” value is recorded as “A (0.7 or more)”.

For “77 (YCPQNFINPVQWRYFQHYK(COCH2)N; thioether 2-19 (inferred)) [compound 77]”, the “Evaluation result” value is recorded as “A (0.7 or more)”.

As for “78 (WCPQNFINPVQWRYFQHYK(COCH2)N; thioether 2-19 (inferred)) [compound 78]”, the “Evaluation result” value was “A (0.7 or more)”.

In the case of “79 (NCPQNFINPVQWRYFQHYK(COCH2)N; thioether 2-19 (inferred)) [compound 79]”, the “Evaluation result” value is “A (0.7 or more)”.

Turning to “80 (QCPQNFINPVQWRYFQHYK(COCH2)N; thioether 2-19 (inferred)) [compound 80]”, the “Evaluation result” value was “A (0.7 or more)”.

With “81 (SCPQNFINPVQWRYFQHYK(COCH2)N; thioether 2-19 (inferred)) [compound 81]”, the “Evaluation result” value is “A (0.7 or more)”.

On to “82 (TCPQNFINPVQWRYFQHYK(COCH2)N; thioether 2-19 (inferred)) [compound 82]”, for which the “Evaluation result” value was “A (0.7 or more)”.

Consider “83 (DCPQNFINPVQWRYFQHYK(COCH2)N; thioether 2-19 (inferred)) [compound 83]”, for which the “Evaluation result” value is reported as “A (0.7 or more)”.

Turning to “84 (ECPQNFINPVQWRYFQHYK(COCH2)N; thioether 2-19 (inferred)) [compound 84]”, the “Evaluation result” value is “A (0.7 or more)”.

For “85 (RCPQNFINPVQWRYFQHYK(COCH2)N; thioether 2-19 (inferred)) [compound 85]”, the “Evaluation result” value is recorded as “A (0.7 or more)”.

For the substance “86 (HCPQNFINPVQWRYFQHYK(COCH2)N; thioether 2-19 (inferred)) [compound 86]”, the “Evaluation result” value is given as “A (0.7 or more)”.

As for “87 (QCPQNFINPVHWRYFQHYK(COCH2)N; thioether 2-19 (inferred)) [compound 87]”, the “Evaluation result” value is listed as “A (0.7 or more)”.

With “88 (QCPQNFINPVQWRYLQHYK(COCH2)N; thioether 2-19 (inferred)) [compound 88]”, the “Evaluation result” value is “A (0.7 or more)”.

Turning to “89 (QCPQNFINPVQWRYYQHYK(COCH2)N; thioether 2-19 (inferred)) [compound 89]”, the “Evaluation result” value is “B (0.5 or more and less than 0.7)”.

For the substance “90 (QCPQNFINPVQWRYRQHYK(COCH2)N; thioether 2-19 (inferred)) [compound 90]”, the “Evaluation result” value was “C (0.1 or more and less than 0.5)”.

Take “91 (QCPQNFINPVQWRYFQHVK(COCH2)N; thioether 2-19 (inferred)) [compound 91]”: the “Evaluation result” value is “C (0.1 or more and less than 0.5)”.

For “92 (QCPQNFINPVQWRYFQHFK(COCH2)N; thioether 2-19 (inferred)) [compound 92]”, the “Evaluation result” value is listed as “A (0.7 or more)”.

For “93 (QCPQNFINPVQWRYFQHWK(COCH2)N; thioether 2-19 (inferred)) [compound 93]”, the “Evaluation result” value is recorded as “A (0.7 or more)”.

As for “94 (QCPQNFINPVQWRYFQHSK(COCH2)N; thioether 2-19 (inferred)) [compound 94]”, the “Evaluation result” value is “C (0.1 or more and less than 0.5)”.

Regarding “95 (QCPQGFINPVQWRYFQHYK(COCH2)N; thioether 2-19) [compound 95]”, the “Evaluation result” value was “C (0.1 or more and less than 0.5)”.

Regarding “96 (QCPQYFINPVQWRYFQHYK(COCH2)N; thioether 2-19) [compound 96]”, the “Evaluation result” value is “C (0.1 or more and less than 0.5)”.

With “97 (QCPQSFINPVQWRYFQHYK(COCH2)N; thioether 2-19) [compound 97]”, the “Evaluation result” value is “C (0.1 or more and less than 0.5)”.

With “98 (QCPQTFINPVQWRYFQHYK(COCH2)N; thioether 2-19) [compound 98]”, the “Evaluation result” value was “C (0.1 or more and less than 0.5)”.

In the case of “99 (QCPQEFINPVQWRYFQHYK(COCH2)N; thioether 2-19) [compound 99]”, the “Evaluation result” value is “C (0.1 or more and less than 0.5)”.

Take “100 (QCPQHFINPVQWRYFQHYK(COCH2)N; thioether 2-19 (inferred)) [compound 100]”: the “Evaluation result” value is “C (0.1 or more and less than 0.5)”.

Take “101 (QCPQNFINPVQIRYFQHYK(COCH2)N; thioether 2-19 (inferred)) [compound 101]”: the “Evaluation result” value is “C (0.1 or more and less than 0.5)”.

“102 (QCPQNFINPVQVRYFQHYK(COCH2)N; thioether 2-19 (inferred)) [compound 102]”: the “Evaluation result” value is “C (0.1 or more and less than 0.5)”.

As to “103 (QCPQNFINPVQFRYFQHYK(COCH2)N; thioether 2-19 (inferred)) [compound 103]”, the “Evaluation result” value is “B (0.5 or more and less than 0.7)”.

For “104 (QCPQNFINPVQYRYFQHYK(COCH2)N; thioether 2-19 (inferred)) [compound 104]”, the “Evaluation result” value is “B (0.5 or more and less than 0.7)”.

As to “105 (QCPQNFINPVQSRYFQHYK(COCH2)N; thioether 2-19 (inferred)) [compound 105]”, the “Evaluation result” value was “C (0.1 or more and less than 0.5)”.

As for “106 (QCPQNFINPVQHRYFQHYK(COCH2)N; thioether 2-19 (inferred)) [compound 106]”, the “Evaluation result” value is “A (0.7 or more)”.

“107 (YCTDNYIDDIQFWYLFLYK(COCH2)Q; thioether 2-19 (inferred)) [compound 107]”: the “Evaluation result” value is “B (0.5 or more and less than 0.7)”.

In the case of “108 (LCRNYINPQQWRYFALYK(COCH2)Y; thioether 2-18 (inferred)) [compound 108]”, the “Evaluation result” value is “A (0.7 or more)”.

As for “109 (DCFINELQYFYIQQYK(COCH2)K; thioether 2-16 (inferred)) [compound 109]”, the “Evaluation result” value was “B (0.5 or more and less than 0.7)”.

Take “110 (QCQTDHQQQLYFIYQYLQK(COCH2)I; thioether 2-19 (inferred)) [compound 110]”: the “Evaluation result” value was “C (0.1 or more and less than 0.5)”.

For “111 (QCDQEFYLALYAWTLRSYK(COCH2)L; thioether 2-19 (inferred)) [compound 111]”, the “Evaluation result” value was “C (0.1 or more and less than 0.5)”.

On to “112 (HCQPEYELYYIYLYLNALK(COCH2)I; thioether 2-19 (inferred)) [compound 112]”, for which the “Evaluation result” value was “C (0.1 or more and less than 0.5)”.

For the substance “113 (RCINYWSGQQFYFFQQYK(COCH2)F; thioether 2-18 (inferred)) [compound 113]”, the “Evaluation result” value was “C (0.1 or more and less than 0.5)”.
